# Assay results: patent US7078385B2, “Methods of inhibiting angiogenesis with fragments and homologs of troponin subunit I” (Boston Life Sciences, Inc., priority 1996, dated 2006)
# B1: rTnI: recombinant human fast-twitch skeletal muscle troponin I expressed in E. coli, about 21 kDa (SEQ ID NO:17) (protein, listed as Homo sapiens)
# chain: MGDEEKRNRAITARRQHLKSVMLQIAATELEKEESRREAEKQNYLAEHCPPLHIPGSMSEVQELCKQLHAKIDAAEEEKYDMEVRVQKTSKELEDMNQKLFDLRGKFKRPPLRRVRMSADAMLKALLGSKHKVCMDLRANLKQVKKEDTEKERDLRDVGDWRKNIEEKSGMEGRKKMFESES
# Experiments:
# [1] = tested on: capillary EC DNA synthesis; experiment: Tritiated thymidine incorporation, capillary EC DNA synthesis; assay type: cell-based, bovine; conditions: tritiated thymidine assay
# Experimental: On day one, 5,000 bovine capillary endothelial cells in DMEM/10% CS/1% GPS are plated onto each well of a 96-well pregelatinized tissue culture plate. On day two, the cell media is changed to DMEM, 2% CS, 1% GPS, 0.5% BSA (complete medium), supplemented with 10 μl of 1 mg/ml “cold” thymidine per 50 ml of medium. On day three, test samples in complete medium are added in duplicate. Additionally, […] (bFGF) is added to each well except for the appropriate controls, to a final concentration of 0.2 ng/well. On day four, 5 μl of 1:13 diluted ^3H-Thymidine stock is added to each well and the plate is incubated for 5–6 hours. Following incubation, the medium is aspirated, and the remainder is rinsed once with PBS, then twice for 5 minutes each with methanol followed by two rinses each for 10 minutes with 5% TCA. The cells are then rinsed with water three times, dried to the plate, and 100 μl of 0.3 N NaOH is added to each well. The contents of the well are then transferred to the scintillation counter vials and 3 mls of Ecolume added to each vial. Samples are then counted on the scintillation counter.
# [2] = tested on: capillary EC from bovine adrenal cortex, bFGF-stimulated; experiment: bFGF-stimulated capillary EC proliferation (Example 8); assay type: cell-based; conditions: bFGF as mitogen
# Experimental: (§1) Capillary EC, isolated from bovine adrenal cortex (Folkman, et al., 1979, Proc. Natl. Acad. Sci. USA 76, 5217–5221) were obtained from Children's Hospital (Boston, Mass.). […] Cells were maintained in culture in DME (Dulbecco's Modified Eagle's Medium, Gibco Laboratories) with 10% calf serum (Hyclone) (DME/10) supplemented with 3 ng/ml bFGF or Vascular Endothelial Growth Factor (VEGF) in preparation for these assays.
# (§2) Briefly, capillary EC (2,000 cells per well) were plated on gelatinized 96-Well culture plates in DMEM supplemented with 5% (v/v) calf serum and incubated for 24 hours. On day 2, cells were treated with bFGF (Scios Nova; 1 ng/ml) and challenged with the test fractions and/or with purified TnI. For experiments in which VEGF was used as the mitogen, 800 cells per well were plated and allowed to incubate for 3 hours before VEGF (Biomedical Technologies Incorporated; 30 ng/ml) and TnI was added. Control wells contained cells alone and cells stimulated with bFGF or VEGF. On day 5, growth medium was removed from the plates; cells were lysed in buffer containing the detergent Triton x-100 and the phosphatase substrate p-nitrophenyl phosphate. […] Color development was determined using a rapid multiwell plate reader (Dynatech MR 5000) (Moses, et al., 1990, Science 2488, 1408–1410; Moses, et al., 1990, J. Cell. Biol. 119, 474–481; Connolly, et al., 1986, Anal. Biochem. 152, 136–140).
# [3] = tested on: capillary EC from bovine adrenal cortex, VEGF-stimulated; conditions: read-out: IC50, capillary EC proliferation; VEGF as mitogen
# Experimental: as §1, §2
# BALB/c mouse 3T3 cells = experiment: Cell specificity: tritiated thymidine incorporation in quiescent 3T3 cells; assay type: cell-based; conditions: doses over 5× higher than the IC50 for capillary EC
# [4] = tested on: bovine aortic smooth muscle cells (SMC); experiment: Cell specificity: PDGF-BB-stimulated smooth muscle cell proliferation, electronic cell counting; assay type: cell-based; conditions: doses over 5× higher than the IC50 for capillary EC
# Experimental: BALB/c mouse 3T3 cells were maintained in DME/10, L-glutamine(292 μg/ml) as previously described (Klagsbrun, et al., 1977, Exp. Cell Res. 105, 99–108). Bovine aortic smooth muscle cells (SMC), isolated by explant from the medial layer of bovine aortas, were obtained from Children's Hospital (Boston, Mass.). These cells were cultured in DME/10 on uncoated tissue culture plastic as previously described (D'Amore and Smith, 1993, Growth Factors 8, 61–75).
# To determine whether the proliferation of bovine aortic SMC and Balb c/3T3 cells was inhibited by TnI, the following assays were conducted. SMC were plated into multiwell dishes (2.1 cm^2/well) at a density of 10,000 cells/well. After allowing the cells to attach overnight, fresh media was applied containing either 3 ng/ml PDGF-BB alone or in combination with increasing concentrations of purified TnI. Following incubation for 72 hrs at 37° C. in 10% CO2, the cells were rinsed in PBS, detached by trypsinization and counted electronically.
# [5] = tested on: bFGF-induced corneal angiogenesis; experiment: Mouse corneal pocket assay; assay type: in vivo, C57BL/6 mice; conditions: 50 mg/kg subcutaneous every 12 hours, sixth day of treatment
# Experimental: Briefly, pellets composed of bFGF (40 ng/ml), sucrose octasulfate and Hydron were implanted into corneal micropockets of six C57BL/6 mice as previously described (U.S. Pat. No. 5,837,680 to Moses et al.). Troponin I (50 mg/kg) was administered systemically every 12 hours by subcutaneous injection. On the sixth day of treatment, corneal angiogenesis was evaluated using slit lamp microscopy and photographed.
# [6] = tested on: embryonic neovascularization of the chick chorioallantoic membrane; experiment: Chick chorioallantoic membrane (CAM) assay; assay type: in vivo; conditions: 48 h
# Experimental: All procedures were carried out in a laminar flow hood under sterile conditions. The eggs were stored in a Favorite Egg Incubator (Leahy) at 37° C. and 65% relative humidity. On day 3 of development, fertilized White Leghorn eggs (SPAFAS) were cracked and the embryos removed from their shells and placed in plastic petri dishes. On day 6, test substances including native rabbit TnI (Greaser and Gergely, 1971, J. Biol. Chem. 246, 4226–4233) and recombinant human TnI and appropriate buffer controls were mixed in methylcellulose, disks and applied to the surfaces of the growing CAMs above the dense subectodermal plexus.
# [7] = tested on: B16-BL6 melanoma lung metastases; experiment: B16-BL6 melanoma lung metastasis model; assay type: in vivo, C57BL/6 mice
# Experimental: Murine melanoma B16-BL6 were cultured in RPMI 1640 (Gibco) supplemented with 10% (v/v) fetal calf serum (Hyclone), L-glutamine and NaHCO3. Cells were washed with EBSS (Gibco) and trypsinized for 3 to 5 mm with 0.25% TRL/0.2% EDTA to which culture buffer was added for washing. This preparation was then centrifuged for 10 mm at 1000 rpm, the cell pellet resuspended in fresh culture media, cell number determined using a coulter counter and cell viability determined with trypan blue (100% viability). The cell suspension was adjusted to […] for implantation. B16-BL6 cells (5×10^5/0.2 ml) were injected into the tail veins of C57BL/6 mice (approximately 6–7 weeks old). One day following tumor cell inoculation, mice were treated with rTnI systemically, twice per week, with a dose of either 1 mg/kg (n=10) or 20 mg/kg (n=10) or vehicle (150 mM NaCl, 20 mM citrate, pH3) over, a 28 day period. On day 30, animals were sacrificed, the number of lung surface metastases counted and the lungs weighed.
molecule,measurement,setting,value
B1,IC50,[1],~240 nM
same,IC50,[2],~65 nM
same,IC50,[3],~1.5 nM
same,Suppression of growth of Balb/c 3T3 cells,BALB/c mouse 3T3 cells,did not suppress the growth
same,Suppression of growth of bovine aortic smooth muscle cells,[4],did not suppress the growth
same,Inhibition of bFGF-induced corneal angiogenesis (in words),[5],significantly inhibited
same,Eggs with avascular zone (inhibition of embryonic neovascularization),[6]; 130 picomoles,66%
same,Eggs with avascular zone (inhibition of embryonic neovascularization),[6]; approximately 380 picomoles,100%
same,Inhibition of lung metastases,"[7]; 1 mg/kg systemically twice weekly, 28 days, day 30",52%
same,Inhibition of lung metastases,"[7]; 20 mg/kg systemically twice weekly, 28 days, day 30",64%
same,"Number of lung surface metastases (mean, SEM)","[7]; 20 mg/kg twice weekly, day 30",25.0+/−7.5
same,Toxicity (weight or appetite loss),"[7]; 1 or 20 mg/kg twice weekly, 28 days",no observed toxicity
same,"Lung weights, treated versus control groups","[7]; 1 or 20 mg/kg twice weekly, day 30",comparable
